These results are taken from patent publication US20100239594A1 (IBIO, published 2010).

Assay [1] addresses Bacillus anthracis protective antigen (PA) polypeptide (Bacillus anthracis, UniProt P13423 30-764). As to the kind of experiment: Western blot and ELISA, plant-produced antibody. In general terms: In western blotting, separated proteins are transferred to a membrane and probed.
The target in assay [2] is T1, Bacillus anthracis lethal factor (LF) polypeptide (Bacillus anthracis, UniProt P15917 34-809).
T1 sequence: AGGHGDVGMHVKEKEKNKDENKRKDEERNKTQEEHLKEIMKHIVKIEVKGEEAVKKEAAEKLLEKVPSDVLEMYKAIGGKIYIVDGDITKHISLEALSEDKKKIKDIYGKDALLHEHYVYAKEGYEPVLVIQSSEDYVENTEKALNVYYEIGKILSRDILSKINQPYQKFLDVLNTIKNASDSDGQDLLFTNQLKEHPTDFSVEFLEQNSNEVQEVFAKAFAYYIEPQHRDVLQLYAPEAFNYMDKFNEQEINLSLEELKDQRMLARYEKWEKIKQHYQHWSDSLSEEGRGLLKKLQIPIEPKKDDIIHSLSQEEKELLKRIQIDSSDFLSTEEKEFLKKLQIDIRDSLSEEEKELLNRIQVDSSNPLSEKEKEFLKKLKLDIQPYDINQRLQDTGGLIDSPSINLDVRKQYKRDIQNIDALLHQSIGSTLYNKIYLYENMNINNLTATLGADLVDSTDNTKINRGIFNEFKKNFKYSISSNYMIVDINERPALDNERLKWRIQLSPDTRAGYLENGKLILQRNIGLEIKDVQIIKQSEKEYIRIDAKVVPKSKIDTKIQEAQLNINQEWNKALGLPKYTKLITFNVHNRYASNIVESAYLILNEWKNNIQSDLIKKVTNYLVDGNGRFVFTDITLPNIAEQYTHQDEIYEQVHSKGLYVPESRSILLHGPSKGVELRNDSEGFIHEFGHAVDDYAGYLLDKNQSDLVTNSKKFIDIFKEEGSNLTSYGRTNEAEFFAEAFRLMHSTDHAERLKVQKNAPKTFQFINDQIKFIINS
Nature of the assay: Western blot and ELISA, plant-produced antibody.

Sequence of Bacillus anthracis protective antigen (PA) polypeptide (P13423 30-764 limits assumed): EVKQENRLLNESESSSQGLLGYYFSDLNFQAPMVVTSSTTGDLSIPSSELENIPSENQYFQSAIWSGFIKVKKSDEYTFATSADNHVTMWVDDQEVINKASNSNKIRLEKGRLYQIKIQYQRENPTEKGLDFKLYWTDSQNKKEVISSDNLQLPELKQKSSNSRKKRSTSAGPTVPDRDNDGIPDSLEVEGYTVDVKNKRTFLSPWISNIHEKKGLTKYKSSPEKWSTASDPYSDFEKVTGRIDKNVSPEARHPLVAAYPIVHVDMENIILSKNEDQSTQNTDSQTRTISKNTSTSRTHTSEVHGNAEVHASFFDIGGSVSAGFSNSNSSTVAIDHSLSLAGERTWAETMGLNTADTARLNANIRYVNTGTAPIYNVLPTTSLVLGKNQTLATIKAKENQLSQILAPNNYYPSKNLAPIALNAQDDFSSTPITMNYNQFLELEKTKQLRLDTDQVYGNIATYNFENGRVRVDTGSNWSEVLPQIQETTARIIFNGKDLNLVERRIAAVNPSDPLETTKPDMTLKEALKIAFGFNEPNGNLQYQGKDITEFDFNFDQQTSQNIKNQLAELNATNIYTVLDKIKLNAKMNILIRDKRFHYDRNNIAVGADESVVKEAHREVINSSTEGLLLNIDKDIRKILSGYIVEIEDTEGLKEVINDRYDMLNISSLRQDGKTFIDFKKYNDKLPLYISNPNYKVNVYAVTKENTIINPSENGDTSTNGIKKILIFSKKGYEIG

B1: PA-1 huMAb, plant-produced glycosylated PA antibody (antibody, V domains shown)
VH: QVQLVQSGAEVKKPGASVKVSCKASGYTFTSNAIQWVRQAPGQRLEWVGWINGGDGNTKYSQKFQGRVTISRDISASTAYMELSSLRSEDTAVYYCARHRLQRGGFDPWGQGTLVTVSS
VL: EIVLTQSPGTLSLSPGERATLSCRASQSVSYSSLAWYQQKPGQAPSLLIYGASSRATGIPDRFSGSGSGPDFTLTISRLEPEDFAVYYCQHYGNSPYTFGQGTKLEIKR
As for B1, the binding result in assay [1] is “binds”.

B2: LF-1 huMAb, plant-produced LF antibody (antibody, V domains shown)
VH: EVQLLESGGGLVQPGGSLRLSCSGSGFMFSSYAMSWVRQAPGKGLEWVSGISGSGGTTNYADSVKGRFTISRDNSKNTLYMQMNSLRAEDTAVYYCAKDGVYGRLGGSDYWGQGTLVTVSS
VL: EIVLTQSPDFQSVSPKEKVTITCRASQSVGSSLHWYQQKPDQSPKLLIKYASQSFSGVPSRFSGSGSGTDFTLTINSLETEDAATYYCHQSSSLPLTFGGGTKVEIKR
Take B2: the binding result in assay [2] is recorded as “binds”.
